Test results as given in patent US20260217824A1 (Bristol-Myers Squibb, published 2026).
Where two headings read alike, the source gives them in different places.

Tests used:
[1] = target: T1, FcγRIIIB (CD16b-NA2 variant) (human, UniProt O75015 17-200); assay: SPR sensorgrams, Example 10; response axis without unit, no time axis; set-up and concentrations not given
[2] = target: T2, FcγRIIIA (CD16a-V158 variant) (human, UniProt P08637 17-208); assay: as above
FcγRIIB (CD32b) [3] = target: T3, FcγRIIB (CD32b) (human, UniProt P31994 43-217); assay: as above
T3 sequence (looked up): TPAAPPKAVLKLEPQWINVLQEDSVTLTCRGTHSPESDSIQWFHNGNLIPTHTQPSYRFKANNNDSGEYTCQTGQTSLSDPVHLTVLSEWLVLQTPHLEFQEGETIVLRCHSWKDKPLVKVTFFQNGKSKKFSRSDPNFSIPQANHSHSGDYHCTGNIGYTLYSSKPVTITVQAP

[4] = target: T4, FcγRIIA (CD32a-R131 variant) (human, UniProt P12318 36-218); assay: SPR, response as % of Rmax (maximum FcγR capacity), Example 10; set-up and concentrations not given
T4 sequence (looked up): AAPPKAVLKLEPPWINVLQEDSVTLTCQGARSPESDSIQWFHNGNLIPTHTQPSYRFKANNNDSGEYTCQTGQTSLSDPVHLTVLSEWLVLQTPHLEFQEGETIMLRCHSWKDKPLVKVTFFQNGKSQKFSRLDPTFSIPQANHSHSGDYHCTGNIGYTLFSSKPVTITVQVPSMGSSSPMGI

FcγRI (CD64) = FcγRI (CD64) (human, UniProt P12314 16-288); assay: as above
Sequence of FcγRI (CD64) (P12314 16-288 limits assumed): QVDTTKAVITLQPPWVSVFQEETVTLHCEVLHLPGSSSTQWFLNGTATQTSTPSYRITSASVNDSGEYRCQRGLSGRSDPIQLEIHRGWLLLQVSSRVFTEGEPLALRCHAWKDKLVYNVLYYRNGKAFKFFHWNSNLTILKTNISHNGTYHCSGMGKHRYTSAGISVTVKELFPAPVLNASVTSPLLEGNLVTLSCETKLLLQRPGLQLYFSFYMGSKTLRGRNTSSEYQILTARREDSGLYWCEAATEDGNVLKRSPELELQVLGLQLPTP

[5] = target: T5, FcγRIIA (CD32a-H131 variant) (human, UniProt P12318 36-218); assay: as above
T5 sequence (looked up): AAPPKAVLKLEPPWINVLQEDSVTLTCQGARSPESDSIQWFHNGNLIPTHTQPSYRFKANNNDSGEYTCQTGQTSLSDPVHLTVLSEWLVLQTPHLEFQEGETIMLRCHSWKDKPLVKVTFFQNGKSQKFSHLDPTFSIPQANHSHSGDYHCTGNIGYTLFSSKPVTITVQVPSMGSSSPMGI

[6] = target: T6, CynoTREM1 (as named in Table 3) (cynomolgus); assay: SPR (Biacore)
T6 construct: also called cynomolgus TREM-1
T6 chain: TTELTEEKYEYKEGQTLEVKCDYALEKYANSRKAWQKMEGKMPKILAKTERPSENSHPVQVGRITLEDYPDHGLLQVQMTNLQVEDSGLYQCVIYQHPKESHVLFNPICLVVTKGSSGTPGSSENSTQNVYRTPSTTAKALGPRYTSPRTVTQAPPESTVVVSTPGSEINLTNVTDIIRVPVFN

[7] = target: T7, cynomolgus TREM-1 on cells (cynomolgus); assay: cell-based or functional assay
T7 chain: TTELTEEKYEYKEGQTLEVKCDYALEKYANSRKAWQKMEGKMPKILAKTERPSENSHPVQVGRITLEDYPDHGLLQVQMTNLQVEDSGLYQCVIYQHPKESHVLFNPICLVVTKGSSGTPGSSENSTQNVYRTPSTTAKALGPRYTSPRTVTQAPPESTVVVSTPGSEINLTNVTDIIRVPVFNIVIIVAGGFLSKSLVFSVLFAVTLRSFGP

[8] = target: T7, cynomolgus TREM-1 on cells; assay: estimate of the 2-compartment PK model with TMDD fitted to cynomolgus PK/RO/PD data (mAb affinity for TREM-1); cyno-model estimate (CV 12%) of the TMDD PK/PD fit, not a direct binding assay
Experimental: (§1) A direct-effect inhibitory model was used to describe the PD response. […] The observed (open circle) and model-predicted endpoints (solid line) are provided in FIGS. 16A (0.1 mg/kg subcutaneous dosing) and 16B (10 mg/kg subcutaneous dosing).

[9] = target: T7, cynomolgus TREM-1 on cells; assay: in vivo receptor occupancy against serum concentration, Emax model, cynomolgus monkeys
Experimental: Upon antibody administration, pharmacokinetics, anti-drug antibodies (ADA), TREM-1 receptor occupancy (RO), and ex vivo pharmacodynamics responses were examined at pre-determined time points.
as §1

[10] = target: T4, FcγRIIA (CD32a-R131 variant); assay: SPR sensorgrams, Example 10; response axis without unit, no time axis; set-up and concentrations not given
[11] = target: T2, FcγRIIIA (CD16a-V158 variant); assay: as above; remark: listed apart in the source
[12] = target: T5, FcγRIIA (CD32a-H131 variant); assay: as above
FcγRIIB (CD32b) [13] = target: T3, FcγRIIB (CD32b); assay: as above; remark: listed apart in the source
[14] = target: T1, FcγRIIIB (CD16b-NA2 variant); assay: SPR, response as % of Rmax (maximum FcγR capacity), Example 10; set-up and concentrations not given

T2 sequence (P08637 other isoform, or with tags, fused parts or gaps mutant limits assumed): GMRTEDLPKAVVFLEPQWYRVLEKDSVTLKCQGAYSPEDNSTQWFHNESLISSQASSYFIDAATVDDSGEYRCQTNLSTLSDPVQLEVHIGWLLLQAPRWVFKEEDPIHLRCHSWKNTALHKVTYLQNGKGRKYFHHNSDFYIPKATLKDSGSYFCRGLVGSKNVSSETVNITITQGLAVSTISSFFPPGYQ
T1 sequence (O75015 other isoform, or with tags, fused parts or gaps mutant limits assumed): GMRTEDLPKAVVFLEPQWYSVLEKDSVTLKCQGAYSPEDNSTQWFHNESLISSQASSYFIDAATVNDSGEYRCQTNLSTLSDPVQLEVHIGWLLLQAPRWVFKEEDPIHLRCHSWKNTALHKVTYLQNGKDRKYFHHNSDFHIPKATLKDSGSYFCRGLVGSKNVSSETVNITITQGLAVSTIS

B1: mAb 0318-IgG1-Aba (antibody)
heavy: not shown
light: DIVLTQSPDSLAVSLGERATINCRASQSVDTFDYSFLHWYQQKPGQPPKLLIYRASNLESGVPDRFSGSGSGTDFTLTISSLQAEDVAVYYCQQSNQDPYTFGQGTKLEIKRTVAAPSVFIFPPSDEQLKSGTASVVCLLNNFYPREAKVQWKVDNALQSGNSQESVTEQDSKDSTYSLSSTLTLSKADYEKHKVYACEVTHQGLSSPVTKSFNRGEC
notes: IgG1 constant region with K214R, C226S, C229S, P238S (EU); also called IgG1-Aba mod; FcAba-1
[1]
  binding result: no binding
[2]
  binding result: no binding
FcγRIIB (CD32b) [3]
  binding result: no binding
[4]
  binding result: no binding
FcγRI (CD64)
  binding result: binds
[5]
  binding result: no binding

B2: mAb 0318-IgG1.3f (antibody)
heavy: EVQLVESGGGLVQPGGSLKLSCAASGFTFSTYAMHWVRQASGKGLEWVGRIRTKSSNYATYYAASVKGRFTISRDDSKNTAYLQMNSLKTEDTAVYYCTRDMGIRRQFAYWGQGTLVTVSSASTKGPSVFPLAPSSKSTSGGTAALGCLVKDYFPEPVTVSWNSGALTSGVHTFPAVLQSSGLYSLSSVVTVPSSSLGTQTYICNVNHKPSNTKVDKRVEPKSCDKTHTCPPCPAPEAEGAPSVFLFPPKPKDTLMISRTPEVTCVVVDVSHEDPEVKFNWYVDGVEVHNAKTKPREEQYNSTYRVVSVLTVLHQDWLNGKEYKCKVSNKALPAPIEKTISKAKGQPREPQVYTLPPSREEMTKNQVSLTCLVKGFYPSDIAVEWESNGQPENNYKTTPPVLDSDGSFFLYSKLTVDKSRWQQGNVFSCSVMHEALHNHYTQKSLSLSPGK
light: DIVLTQSPDSLAVSLGERATINCRASQSVDTFDYSFLHWYQQKPGQPPKLLIYRASNLESGVPDRFSGSGSGTDFTLTISSLQAEDVAVYYCQQSNQDPYTFGQGTKLEIKRTVAAPSVFIFPPSDEQLKSGTASVVCLLNNFYPREAKVQWKVDNALQSGNSQESVTEQDSKDSTYSLSSTLTLSKADYEKHKVYACEVTHQGLSSPVTKSFNRGEC
notes: IgG1 constant region with L234A, L235E, G237A (EU)
[6]
  Kd: 3.4 nM
[7]
  IC50 (nM), estimate of the cynomolgus PK/PD model: 1.9 nM
[8]
  Kd: 0.64 nM
[9]
  EC50: 1.6 nM
[4]
  binding result: binds
FcγRI (CD64)
  binding result: binds

B3: mAb 0318-IgG4-Aba (antibody)
heavy: not shown
light: DIVLTQSPDSLAVSLGERATINCRASQSVDTFDYSFLHWYQQKPGQPPKLLIYRASNLESGVPDRFSGSGSGTDFTLTISSLQAEDVAVYYCQQSNQDPYTFGQGTKLEIKRTVAAPSVFIFPPSDEQLKSGTASVVCLLNNFYPREAKVQWKVDNALQSGNSQESVTEQDSKDSTYSLSSTLTLSKADYEKHKVYACEVTHQGLSSPVTKSFNRGEC
notes: IgG4 CH1 with IgG1 CH2 and CH3, C226S, C229S, P238S (EU); also called IgG4-Aba mod; FcAba-4
[10]
  binding result: no binding
[11]
  binding result: no binding
[12]
  binding result: no binding
FcγRIIB (CD32b) [13]
  binding result: no binding
[14]
  binding result: no binding
FcγRI (CD64)
  binding result: binds

B4: mAb 0318-IgG1.1f (antibody)
heavy: EVQLVESGGGLVQPGGSLKLSCAASGFTFSTYAMHWVRQASGKGLEWVGRIRTKSSNYATYYAASVKGRFTISRDDSKNTAYLQMNSLKTEDTAVYYCTRDMGIRRQFAYWGQGTLVTVSSASTKGPSVFPLAPSSKSTSGGTAALGCLVKDYFPEPVTVSWNSGALTSGVHTFPAVLQSSGLYSLSSVVTVPSSSLGTQTYICNVNHKPSNTKVDKRVEPKSCDKTHTCPPCPAPEAEGAPSVFLFPPKPKDTLMISRTPEVTCVVVDVSHEDPEVKFNWYVDGVEVHNAKTKPREEQYNSTYRVVSVLTVLHQDWLNGKEYKCKVSNKALPSSIEKTISKAKGQPREPQVYTLPPSREEMTKNQVSLTCLVKGFYPSDIAVEWESNGQPENNYKTTPPVLDSDGSFFLYSKLTVDKSRWQQGNVFSCSVMHEALHNHYTQKSLSLSPG
light: DIVLTQSPDSLAVSLGERATINCRASQSVDTFDYSFLHWYQQKPGQPPKLLIYRASNLESGVPDRFSGSGSGTDFTLTISSLQAEDVAVYYCQQSNQDPYTFGQGTKLEIKRTVAAPSVFIFPPSDEQLKSGTASVVCLLNNFYPREAKVQWKVDNALQSGNSQESVTEQDSKDSTYSLSSTLTLSKADYEKHKVYACEVTHQGLSSPVTKSFNRGEC
notes: IgG1 constant region with L234A, L235E, G237A, A330S, P331S (EU)
[4]
  binding result: binds
FcγRI (CD64)
  binding result: binds
